B1: TCEB3B (parent)
chain: STTALGDKQRKANESKGTRESWDS
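Further: lentivirally expressed fusions sorted by FACS into six bins by GFP to DsRed ratio, PSI derived from sequencing read proportions per bin multiplied by bin number.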

Variants of B1 are the subject of this data set. The data set can be described thus: protein stability index of a GFP-peptide fusion (GPS, HEK-293T) (PSI 1-6); higher = more stable. The settings on record: c terminus: a fixed tail appended.
Turning to STTALGDKQRKANVSKGTRESWDS [E14V], the protein stability index was 3.34. Turning to STTALGDKQRKANLSKGTRESWDS [E14L], the protein stability index was found to be 3.9.

Consider STTALGDKQRKANYSKGTRESWDS [E14Y], for which the protein stability index worked out at 2.95.

Take STTALGDKQRKANTSKGTRESWDS [E14T]: the protein stability index is 3.42. To STTALGDKQRKANKSKGTRESWDS [E14K] belongs 3.33; to STTALGDKQRKANGSKGTRESWDS [E14G], 3.85.

For STTALGDKQRKANMSKGTRESWDS [E14M], the protein stability index was 3.65. To STTALGDKQRKANSSKGTRESWDS [E14S] belongs 3.82. To STTALGDKQRKANISKGTRESWDS [E14I] belongs 3.81; to STTALGDKQRKANDSKGTRESWDS [E14D], 3.89; to STTALGDKQRKANASKGTRESWDS [E14A], 3.15. STTALGDKQRKANPSKGTRESWDS [E14P]: the protein stability index worked out at 3.19. For the variant STTALGDKQRKANCSKGTRESWDS [E14C], the protein stability index was 2.77. Regarding STTALGDKQRKANHSKGTRESWDS [E14H], the protein stability index amounted to 3.88. Turning to STTALGDKQRKANWSKGTRESWDS [E14W], the protein stability index worked out at 2.73. To STTALGDKQRKANNSKGTRESWDS [E14N] belongs 4.06; to STTALGDKQRKANFSKGTRESWDS [E14F], 3.

For the variant STTALGDKQRKANQSKGTRESWDS [E14Q], the protein stability index is 3.54. To STTALGDKQRKANRSKGTRESWDS [E14R] belongs 3.61; to STTALGDKQRKANESKGTRISWDS [E20I], 4; to STTALGDKQRKANESKGTRPSWDS [E20P], 4.89. To STTALGDKQRKANESKGTRKSWDS [E20K] belongs 5.19; to STTALGDKQRKANESKGTRQSWDS [E20Q], 4.38. Then STTALGDKQRKANESKGTRGSWDS [E20G], with 5; and STTALGDKQRKANESKGTRFSWDS [E20F], with 4.6.

STTALGDKQRKANESKGTRASWDS [E20A]: the protein stability index is 4.82. To STTALGDKQRKANESKGTRCSWDS [E20C] belongs 3.66; to STTALGDKQRKANESKGTRMSWDS [E20M], 4.54; to STTALGDKQRKANESKGTRHSWDS [E20H], 4.89. Turning to STTALGDKQRKANESKGTRRSWDS [E20R], the protein stability index came out at 4.2. Then STTALGDKQRKANESKGTRLSWDS [E20L], with 4.6; and STTALGDKQRKANESKGTRNSWDS [E20N], with 4.68. As for STTALGDKQRKANESKGTRDSWDS [E20D], the protein stability index is 4.76. Then STTALGDKQWKANESKGTRESWDS [R10W], with 3.46; and STTALGDKQVKANESKGTRESWDS [R10V], with 3.54; and STTALGDKQYKANESKGTRESWDS [R10Y], with 4.26. For the variant STTALGDKQRKANESKGTGESWDS [R19G], the protein stability index amounted to 4.68. Take STTALGDKQRKANESKGTVESWDS [R19V]: the protein stability index turned out to be 5.14.

STTALGDKQRKANESKGTNESWDS [R19N]: the protein stability index was 4.58. Then STTALGDKQRKANESKGTFESWDS [R19F], with 3.86; and STTALGDKQRKANESKGTYESWDS [R19Y], with 3.37; and STTALGDKQRKANESKGTAESWDS [R19A], with 4.95. In the case of STTALGDKQRKANESKGTLESWDS [R19L], the protein stability index was 4.5. Turning to STTALGDKQRKANESKGTQESWDS [R19Q], the protein stability index came to 4.49. Then STTALGDKQRKANESKGTCESWDS [R19C], with 4.67. To STTALGDKQRKANESKGTHESWDS [R19H] belongs 4.4; to STTALGDKQRKANESKGTIESWDS [R19I], 4.58; to STTALGDKQRKANESKGTKESWDS [R19K], 4.21. Then STTALGDKQRKANESKGTPESWDS [R19P], with 4.84; and STTALGDKQRKANESKGTTESWDS [R19T], with 4.89. On to STTALGDKQRKANESKGTSESWDS [R19S], for which the protein stability index was determined as 4.94. With STTALGDKQRKANESKGTDESWDS [R19D], the protein stability index is 5.16. Then STTALGDKQRKANESKGTEESWDS [R19E], with 5.27; and STTALGDKQRKANESKGTMESWDS [R19M], with 4.8; and STTALGDKQRKANESKGTWESWDS [R19W], with 4.17. On to STTALGDKQRKANESEGTRESWDS [K16E], for which the protein stability index worked out at 5. On to STTALGDKQRKANESDGTRESWDS [K16D], for which the protein stability index was found to be 4.96. Regarding STTALGDKQRKANESAGTRESWDS [K16A], the protein stability index is 4.45. To STTALGDKQRKANESIGTRESWDS [K16I] belongs 3.95. Turning to STTALGDKQRKANESLGTRESWDS [K16L], the protein stability index came out at 4.3. With STTALGDKQRKANESGGTRESWDS [K16G], the protein stability index came out at 4.52. Then STTALGDKQRKANESSGTRESWDS [K16S], with 4.42; and STTALGDKQRKANESFGTRESWDS [K16F], with 3.8. On to STTALGDKQRKANESPGTRESWDS [K16P], for which the protein stability index turned out to be 4.29.

STTALGDKQRKANESVGTRESWDS [K16V]: the protein stability index was 4.53. To STTALGDKQRKANESHGTRESWDS [K16H] belongs 4.14; to STTALGDKQRKANESNGTRESWDS [K16N], 3.97. In the case of STTALGDKQRKANESMGTRESWDS [K16M], the protein stability index amounted to 3.44. Then STTALGDKQRKANESRGTRESWDS [K16R], with 4.04; and STTALGDKQRKANESYGTRESWDS [K16Y], with 3.6; and STTALGDKQRKANESTGTRESWDS [K16T], with 4.24. Turning to STTALGDKQRKANESWGTRESWDS [K16W], the protein stability index turned out to be 3.13. To STTALGDKQRKANESQGTRESWDS [K16Q] belongs 4.24; to STTALGDKQRKANESCGTRESWDS [K16C], 2.97; to STTALGDKQREANESKGTRESWDS [K11E], 4.72. To STTALGDKQRVANESKGTRESWDS [K11V] belongs 4.07; to STTALGDKQRLANESKGTRESWDS [K11L], 3.65.

As for STTALGDKQRYANESKGTRESWDS [K11Y], the protein stability index came to 4. Then STTALGDKQRNANESKGTRESWDS [K11N], with 4.39; and STTALGDKQRRANESKGTRESWDS [K11R], with 3.57; and STTALGDKQRPANESKGTRESWDS [K11P], with 4.23. To STTALGDKQRWANESKGTRESWDS [K11W] belongs 3.99; to STTALGDKQRMANESKGTRESWDS [K11M], 3.86; to STTALGDKQRCANESKGTRESWDS [K11C], 4.53. To STTALGDKQRIANESKGTRESWDS [K11I] belongs 4.02; to STTALGDKQRGANESKGTRESWDS [K11G], 3.88; to STTALGDKQRFANESKGTRESWDS [K11F], 3.79. As to STTALGDKQRHANESKGTRESWDS [K11H], the protein stability index was found to be 4.29. In the case of STTALGDKQRAANESKGTRESWDS [K11A], the protein stability index was 4.3. Then STTALGDKQRTANESKGTRESWDS [K11T], with 4.22; and STTALGDKQRDANESKGTRESWDS [K11D], with 4.32.

For STTALGDKQRSANESKGTRESWDS [K11S], the protein stability index worked out at 4.03. To STTALGDKQRQANESKGTRESWDS [K11Q] belongs 3.79.

In the case of STTALGDKQRKAIESKGTRESWDS [N13I], the protein stability index is 3.59.

(Values after the supplement of paper PMC10567573.)
